Source: paper PMC3386216 (Molecular Biology of the Cell, 2012)

T1: GST-Sac1 (amino acids 2–521) (S. cerevisiae, UniProt P32368 2-521)
T1 sequence: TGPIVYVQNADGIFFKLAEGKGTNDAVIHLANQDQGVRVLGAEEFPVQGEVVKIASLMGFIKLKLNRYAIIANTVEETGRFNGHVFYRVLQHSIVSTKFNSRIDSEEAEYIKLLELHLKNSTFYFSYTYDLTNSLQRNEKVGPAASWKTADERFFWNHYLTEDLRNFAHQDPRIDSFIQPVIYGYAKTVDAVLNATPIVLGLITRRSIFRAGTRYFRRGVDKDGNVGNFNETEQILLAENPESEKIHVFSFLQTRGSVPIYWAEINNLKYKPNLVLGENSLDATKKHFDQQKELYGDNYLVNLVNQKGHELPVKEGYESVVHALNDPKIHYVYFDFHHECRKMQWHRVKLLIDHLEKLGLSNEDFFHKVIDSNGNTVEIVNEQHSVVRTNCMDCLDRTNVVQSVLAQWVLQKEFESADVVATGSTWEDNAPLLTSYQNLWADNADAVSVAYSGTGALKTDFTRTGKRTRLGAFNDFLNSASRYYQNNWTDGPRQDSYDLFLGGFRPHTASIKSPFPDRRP


Experiments:
[1] = molecular target: Sac1 (amino acids 2–521) (untagged recombinant, SPR) (S. cerevisiae) (UniProt P32368); assay: SPR
[2] = molecular target: T1, GST-Sac1 (amino acids 2–521); assay: pull-down

Binder | Kd [1] | binding result [2]
His- and T7-tagged Vps74 (natural protein) MSTLQRRRVNRADSGDTSSIHSSANNTKGDKIANIAVDGDDDNGTNKKIAYDPEESKLRDNINIPTLTLMEEVLLMGLRDREGYLSFWNDSISYALRGCIIIELALRGKIRILDDSARKRFDLSERLIEVIDSSKTGEVLLDETLQLMKNDEPLSISNWIDLLSGETWNLLKINYQLKQVRERLAKGLVDKGVLRTEMKNFFLFDMATHPIADASCKEAIKRRVLSVLVSRNMELSYNEYFPETTSFKIIRTLALICGSYGANVLENVLTTLEYEKRDKAISRAEEIMAQFSQYPFDLEKETELGVSVNLNKEVKEEIENNPGHDLQLEVIAGVFEVFSRMDMLL | 3.8 µM | binds
Vps74ΔN59 (domain or fragment) DNINIPTLTLMEEVLLMGLRDREGYLSFWNDSISYALRGCIIIELALRGKIRILDDSARKRFDLSERLIEVIDSSKTGEVLLDETLQLMKNDEPLSISNWIDLLSGETWNLLKINYQLKQVRERLAKGLVDKGVLRTEMKNFFLFDMATHPIADASCKEAIKRRVLSVLVSRNMELSYNEYFPETTSFKIIRTLALICGSYGANVLENVLTTLEYEKRDKAISRAEEIMAQFSQYPFDLEKETELGVSVNLNKEVKEEIENNPGHDLQLEVIAGVFEVFSRMDMLL | 4.2 µM | 
